Data from patent US20210403595 (published 2021).
Residue numbers refer to the chain shown, from its start.

T1: cynomolgus CD3 on T cells (cynomolgus monkey)
T1 chain: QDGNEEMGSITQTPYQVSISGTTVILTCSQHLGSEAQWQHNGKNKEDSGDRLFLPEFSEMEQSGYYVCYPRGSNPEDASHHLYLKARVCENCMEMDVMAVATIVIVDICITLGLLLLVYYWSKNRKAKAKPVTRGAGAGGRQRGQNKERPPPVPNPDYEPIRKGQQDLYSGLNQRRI

B1: H1H5796B (antibody, V domains shown)
VH: EVQLVESGAEVKKPGASVKVSCKTSGYTFTGYYMHWIRQAPGQGLEWMGWINPKSGGTNYAQKFQGRVTMTRDTSISTAYMELSRLRSDDMAVYYCARMGDGAVFDFWGQGTLVTVSS
VL: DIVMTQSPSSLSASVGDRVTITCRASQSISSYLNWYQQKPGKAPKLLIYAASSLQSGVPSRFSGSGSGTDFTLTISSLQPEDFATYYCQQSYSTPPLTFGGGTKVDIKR
B2: H1H5761P (antibody, V domains shown)
VH: QVQLVESGGGVVQPGRSLRLSCAASGFTFSSYGMHWVRQAPGKGLEWVAVISYDGSNKYYADSVKGRFTISRDYSKNTLYLQMNSLRAEDTAVFYCAKGAMVRGVPYNYYYGMDVWGQGTTVTVSS
VL: DIQMTQSPSSLSASVGDRVTITCRASQGIRNDLGWFQQKPGKAPKRLIYAASSLQSGVPSRFSGSGSGTEFTLTISSLQPEDFATYYCLQHNSYPYTFGQGTKLEIK
B3: H1H5751P (antibody)
chain 1: EVQLVESGGDLVQPGRSLRLSCAASGFTFDDYTMHWVRQAPGKGLEWVSIISWNGNTIDYADSVKGRFTISRDNAKNSLYLQMNSLRAEDTALYYCAKDKSGYGHFYYYVLDVWGQGTTVTVSS
chain 2: DIQMTQSPSSLSASVGDRVTITCRASQSINNYLNWYQQKPGKAPKLLIYAASSLQSGVPSRFSGSGSGTDFTLTISSLQPEDFATYYSQQSYSFPWTFGQGTKVEIK
B4: H1H5777P (antibody, V domains shown)
VH: EVQLVESGGGLVQPGRSLRLSCAASGFTFDDYAMHWVRQAPGKGLEWVSGISWNSGSRDYADSVKGRFTISRDNARNSLFLQMNSLSTEDTALYYCAKDKSGYGSYYYGMDVWGQGTTVTVSS
VL: EIVLTQSPGTLSLSPGDRATLSCRASQSIRSIYLAWYQQKPGQAPRLLIHGASTRATGIPDRFSGSGSGTDFTLTISRLEPEDFAVYYCQQRVSSPYTFGQGTKLEIK
B5: H1H5769P (antibody, V domains shown)
VH: B4 VH with A33T, A40V, V48I, R58M, L86V, S87R, Y106F
VL: B4 VL with I29V, R30S, V93A, S94H
B6: BSPSMA/CD3-400 CD3 arm (antibody, V domains shown)
VH: EVQLVESGGGLVQPGRSLRLSCAASGFTFDDYAMHWVRQAPGKGLEWVSGISWNSGSIGYADSVKGRFTISRDNAKNSLYLQMNSLRAEDTALYYCAKDGSGYGKFYYYGMDVWGQGTTVTVSS
VL: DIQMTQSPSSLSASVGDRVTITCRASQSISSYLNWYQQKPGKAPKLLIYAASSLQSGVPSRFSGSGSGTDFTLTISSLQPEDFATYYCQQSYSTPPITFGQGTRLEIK
B7: BSPSMA/CD3-300 CD3 arm (antibody, V domains shown)
VH: B6 VH with A33S, K105Y
VL: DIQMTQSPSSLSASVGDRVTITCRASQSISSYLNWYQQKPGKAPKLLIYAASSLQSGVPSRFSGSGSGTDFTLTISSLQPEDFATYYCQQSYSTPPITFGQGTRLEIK
B8: H2M2705N (antibody, V domains shown)
VH: QVQLVESGGGVVQPGRSLRLACVASGFTFRSYGMHWVRQAPGKGLQWVAMIYYDGKNKYYADSVRGRFTISRDNSKNTLYLQMNNLRVEDTAMYFCARGPGYNWLDPWGQGTLVTVSS
VL: EIVMTQSPATLSVSPGERATLSCRASQRISSNLAWYQQKPGQAPRLLIYGASTRATGSPARFSGSGSGTDFTLTISSLQSEDVAVYYCQQHHNWPLTFGGGTKVEIK
B9: H2M2704N (antibody, V domains shown)
VH: QVQLVESGGGVVQPGRSLRLSCGASGFTFRSYGMHWVRQTPGRGLEWVAMIYYDGNNKYYADSVRGRFTVSRDNSKNTLYLQMSSLRAEDTALYFCARGPGYNWLDPWGQGTLVTVSS
VL: B8 VL with R28S, S31R, Q38X, S58I, D70E, V83F, H91Y, H92N, W94R, K103E
modifications: not fully specified; listing feature
B10: H2M3548N (antibody, V domains shown)
VH: EVQLVESGGGLVQPGRSLRLSCAASGFKFADYAMHWVRQAPGKGLEWVSEISWNSGSIGYVDSVKGRFTISRDNAKNSLYLQMNSLRAEDTALYYCVKDKSGYGHYYIGMDVWGQGTTVIVSS
VL: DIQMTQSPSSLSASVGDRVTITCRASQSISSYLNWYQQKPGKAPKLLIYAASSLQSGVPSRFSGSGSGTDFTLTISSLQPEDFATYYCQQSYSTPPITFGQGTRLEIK
B11: H2M2778N (antibody, V domains shown)
VH: B6 VH with A33S, G56R, G59D, A97V, G100N, K105R, F106Y, T121S
VL: KIVMTQSPATLSVSPGERATLSCRASQSVSGNLAWYQQKPGQAPRLLIYGASTRATSIPARFSGSGSGTEFTLTISSLQSEDFAVYFCQHYYNWPLTFGGGTKVEIR
B12: H2M3543N (antibody, V domains shown)
VH: B6 VH with A33T, G50D, I70V, A88G, G100M, G104A, K105H, F106Y, Y107G
VL: DIQMTQSPSSLSASVGDRVTITCRASQSIRNYLNWYQQKPGKVPKLLIYAASSLQSGVPSRFSGSGSGTDFTLTISSLQPEDFATYYCQQSYSNPPITFGQGTRLEIK
B13: BSPSMA/CD3-004 CD3 arm (antibody, V domains shown)
VH: B6 VH with A33S
VL: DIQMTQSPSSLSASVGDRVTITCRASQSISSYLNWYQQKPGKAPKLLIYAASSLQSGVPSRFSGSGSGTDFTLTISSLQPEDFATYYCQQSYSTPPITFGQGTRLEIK
B14: BSPSMA/CD3-1800 CD3 arm (antibody, V domains shown)
VH: B6 VH with A33S, M111L
VL: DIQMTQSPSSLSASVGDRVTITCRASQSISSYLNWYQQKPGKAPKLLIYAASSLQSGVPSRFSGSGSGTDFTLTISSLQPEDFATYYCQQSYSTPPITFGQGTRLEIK
B15: H2M2776N (antibody)
chain 1: B9 VH with G23A, Y32F, T40A, Y53F, N56K, V70I, Q82E, L93V
chain 2: EIVMTQSPATLSVSPGERVILSCRASQSISRNLAWYQXKPGQAPRLLIYGATTRATGVPARFSGSGSGTEFTLTISSLQSEDFAVFYCQQYNNRPLTFGGGTEVEIK
modifications: not fully specified; listing feature
B16: H2M3547N (antibody, V domains shown)
VH: EAQLVESGGGLVQPGRSLRLSCTTSGFTFDDYTMHWVRQAPGKGLEWISDISWNGGTKGYADSVKGRFTISRDNAKNSLYLQMDSLRGEDTALYYCVKDKSGYGHFYFGLDVWGQGTTVTVSS
VL: B12 VL with S12T, I21F, R30S, N31R, Y32H, N34S, V43A, Q55E, Q79H
B17: H2M3541N (antibody, V domains shown)
VH: B6 VH with Q13R, A33T, G50D, S57T, A88P, G100M, G104A, K105H, F106Y
VL: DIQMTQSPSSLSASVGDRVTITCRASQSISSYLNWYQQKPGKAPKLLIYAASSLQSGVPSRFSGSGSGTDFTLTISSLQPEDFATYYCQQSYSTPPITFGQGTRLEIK
B18: H1H5753B (antibody, V domains shown)
VH: QVQLVESGGGLVQPGGSLRLSCAASYFTFSSFAMNWVRQAPGQGLEWVSAISGRVSAISGSGGITYYADSVKGRFIISRDNSKNTLYLQMSGLRAEDTAVYYCAKGPYLTTVTPFDYWGQGTLVTVSS
VL: DIQLTQSPSSVSASVGDRVTITCRASQGISSWLAWYQQKPGKAPKLLIYAVSSLQNGVPSRFSGSGSGTDFTLTISSLQPEDFATYYCQQANSFPFTFGPGTKLEIKR
B19: H1H5756B (antibody, V domains shown)
VH: EVQLVESGGGVVQPGRSLRLSCTASGFPFSRYGMHWVRQAPGKGLEWVTFIWYDGSNKYYADSAKGRFTITRDNSKNTVYLQMDSLRADDTAVYYCVRDQAALYYFDSWGQGTLVTVSS
VL: B18 VL with L4M, S31R, Y49S, V51A, N56S, S77G, Q90K
B20: H1H5785B (antibody, V domains shown)
VH: QVQLVESGGGVVQPGRSLRLSCAASGLTFSTYVMHWVRQAPGKGLAWVAVIANDGSNKYYADSVKGRFTISRDNSKNTLYLQMNSLRPEDTAVYFCAKEGGTSGSYYYYGMDVWGQGTTVTVSS
VL: DIQMTQSPDSLAVSLGERATINCKSSQSLLFNSINKNYLAWYQQKPGQPPKLLLYWASTRESGIPDRFSGSGSGTDFTLTITSLQAEDVALYYCQQYYSIPWTFGQGTKVEIKR
B21: H1H7258P (antibody, V domains shown)
VH: QVQLVESGGGLVQPGRSLRLSCAASGFTFDDYTMHWVRQGPGKGLEWVSDIGWNSNTIGYADSVKGRFTISRDNARNSLYLQMNSLRPEDTALYYCVKDKSGYGKFQYGLDVWGQGTTVTVSS
VL: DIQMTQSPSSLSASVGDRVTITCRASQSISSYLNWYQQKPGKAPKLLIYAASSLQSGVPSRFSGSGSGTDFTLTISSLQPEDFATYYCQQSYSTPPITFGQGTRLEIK
B22: H1H7241P (antibody, V domains shown)
VH: B21 VH with Q1E, D30A, T69A, R76K
VL: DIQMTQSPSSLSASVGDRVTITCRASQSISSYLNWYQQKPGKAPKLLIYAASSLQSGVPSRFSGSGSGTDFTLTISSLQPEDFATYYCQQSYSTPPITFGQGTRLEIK

Target: human CD3 epsilon/delta heterodimer, Fc-tagged (human)
Sequence (chain, as listed by the source mutant, chain 1 of 2): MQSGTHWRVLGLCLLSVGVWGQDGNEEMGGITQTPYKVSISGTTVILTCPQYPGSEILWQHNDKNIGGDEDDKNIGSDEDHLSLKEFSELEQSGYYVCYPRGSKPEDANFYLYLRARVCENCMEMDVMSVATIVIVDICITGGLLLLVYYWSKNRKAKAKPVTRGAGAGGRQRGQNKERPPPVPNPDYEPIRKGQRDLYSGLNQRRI
Sequence (chain, as listed by the source mutant, chain 2 of 2): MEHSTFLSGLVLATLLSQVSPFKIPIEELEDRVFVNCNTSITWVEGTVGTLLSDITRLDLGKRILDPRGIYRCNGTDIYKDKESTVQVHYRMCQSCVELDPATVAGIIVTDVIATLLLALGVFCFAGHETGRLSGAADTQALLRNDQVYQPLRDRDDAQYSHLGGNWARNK
Experiment: SPR, 25C antigen-capture

Row | Kd | Binder
1 | 2.32 nM | B1
2 | 53.4 nM | B2
3 | 3.42 nM | B3
4 | 3.52 nM | B4
5 | 4.41 nM | B5

Target: human CD3 on Jurkat cells (human)
Sequence (chain, as listed by the source, chain 1 of 2): as the sequence (chain, as listed by the source mutant, chain 1 of 2) above
Sequence (chain, as listed by the source, chain 2 of 2): as the sequence (chain, as listed by the source mutant, chain 2 of 2) above
Experiment: FACS

Row | binding result | Binder
6 | no binding | B6
7 | no binding | B7

Target: human CD3 epsilon/delta heterodimer, Fc-tagged (human)
Experiment: SPR, 25C antibody-capture

Row | Kd | Binder
8 | 13.7 nM | B8
9 | 20 nM | B9
10 | 130 nM | B10
11 | 8.9 nM | B11
12 | 30 nM | B12

Target: human CD3 on Jurkat cells (human)
Experiment: FACS
Remark: another data set of the same source

Row | EC50 | Binder
13 | ~1000 nM | B13
14 | 126 nM | B14

Target: human CD3 epsilon/delta heterodimer, Fc-tagged (human)
Experiment: SPR, 25C antigen-capture
Remark: another data set of the same source

Row | Kd | Binder
15 | 0.14 nM | B8
16 | 0.14 nM | B15
17 | 0.0215 nM | B16

Target: T1, cynomolgus CD3 on T cells
Experiment: FACS

Row | binding result | Binder
18 | no binding | B6
19 | no binding | B13
20 | no binding | B7
21 | no binding | B14

Target: human CD3 on Jurkat cells (human)
Experiment: FACS
Remark: another data set of the same source

Row | EC50 | Binder
22 | 0.296 nM | B8
23 | 1.1 nM | B10
24 | 3.7 nM | B17

Target: human CD3 epsilon/delta heterodimer, Fc-tagged (human)
Experiment: SPR, 37C

Row | binding result | Binder
25 | no binding | B6
26 | no binding | B13
27 | no binding | B7
28 | no binding | B14

Target: human CD3 on Jurkat cells (human)
Experiment: FACS
Remark: another data set of the same source

Row | binding result | Binder
29 | no binding | B18
30 | no binding | B19
31 | no binding | B20

Target: human CD3 epsilon/delta heterodimer, Fc-tagged (human)
Experiment: SPR, 25C antibody-capture
Remark: another data set of the same source

Row | Kd | Binder
32 | 24 nM | B21
33 | 22 nM | B22

Target: human CD3 epsilon/delta heterodimer, Fc-tagged (human)
Experiment: SPR, 25C antibody-capture
Remark: another data set of the same source

Row | Kd | Binder
34 | 60.5 nM | B1
35 | 5160 nM | B2
36 | 129 nM | B3
37 | 224 nM | B4
38 | 121 nM | B5

Target: human CD3 on Jurkat cells (human)
Experiment: FACS
Remark: another data set of the same source

Row | EC50 | Binder
39 | 9.82 nM | B1
40 | 2.1 nM | B2
41 | 2.12 nM | B3
42 | 0.571 nM | B4
43 | 4.1 nM | B5
